The text below walks through data of paper PMC3143144.

As a reminder, the Kd is the free concentration of one partner at which half of the binding sites on the other are occupied at equilibrium, for simple one-to-one binding. The low end stands for higher affinity, the high end for lower affinity.

The target in data set [1] is αE2 (isolated E2 DNA-recognition helix peptide) (Human papillomavirus type 16?) (UniProt P06790). Briefly: EMSA.
The target is the same in data set [2]. Briefly: DNA melting.

Sequence of UniProt P06790 (P06790 whole entry): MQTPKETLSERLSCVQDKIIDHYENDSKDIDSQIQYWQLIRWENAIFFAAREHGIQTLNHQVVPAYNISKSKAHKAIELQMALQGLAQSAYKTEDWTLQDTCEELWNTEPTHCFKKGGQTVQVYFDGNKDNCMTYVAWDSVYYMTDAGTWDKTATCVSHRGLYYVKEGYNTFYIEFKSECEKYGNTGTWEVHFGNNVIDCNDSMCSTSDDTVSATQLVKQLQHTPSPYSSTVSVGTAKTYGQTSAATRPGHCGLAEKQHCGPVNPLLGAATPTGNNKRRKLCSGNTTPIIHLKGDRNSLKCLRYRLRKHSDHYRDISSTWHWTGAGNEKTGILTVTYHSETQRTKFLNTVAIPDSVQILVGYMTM

In turn, “GTAGCACAAATCGGTTGA (double strand) [hemisite E2-Dst]” came in with a Kd in data set [1] of 6.3 µM. Besides, the binding signal in data set [2] is 2 C (ΔTm). In the case of “ACATGGACCTGTCAAGTA (double strand) [Iset non E2-non Dst]”, in data set [1], the Kd worked out at 50 µM.
